From publication PMC7218058 (2020)

B1: human FcγRIa (his tag) (receptor)
chain: QVDTTKAVITLQPPWVSVFQEETVTLHCEVLHLPGSSSTQWFLNGTATQTSTPSYRITSASVNDSGEYRCQRGLSGRSDPIQLEIHRGWLLLQVSSRVFTEGEPLALRCHAWKDKLVYNVLYYRNGKAFKFFHWNSNLTILKTNISHNGTYHCSGMGKHRYTSAGISVTVKELFPAPVLNASVTSPLLEGNLVTLSCETKLLLQRPGLQLYFSFYMGSKTLRGRNTSSEYQILTARREDSGLYWCEAATEDGNVLKRSPELELQVLGLQLPTPVWFH
B2: human FcγRIIa 131His, biotinylated (receptor)
chain: QAAAPPKAVLKLEPPWINVLQEDSVTLTCQGARSPESDSIQWFHNGNLIPTHTQPSYRFKANNNDSGEYTCQTGQTSLSDPVHLTVLSEWLVLQTPHLEFQEGETIMLRCHSWKDKPLVKVTFFQNGKSQKFSHLDPTFSIPQANHSHSGDYHCTGNIGYTLFSSKPVTITVQVPSMGSSSPMG
modifications: biotin

Assays:
[1] = biological target: IgG2 allotypes (anti-RhD); experiment: SPR
[2] = biological target: IgG4 allotypes (anti-RhD); experiment: SPR

Binder	Kd [1]	Kd [2]
B1	> 1000 nM	–
B2	–	> 1000 nM
